± gives the uncertainty stated by the source.
Assay: self-splicing fitness, log relative to wild type (ln ratio); higher = more splicing; Tetrahymena group I intron in knt gene, E. coli kanamycin selection, DiMSum; sequences stand for … in CUCUCU…GGAGGGAAAAGUUAUCAGGCAUGCACCUGGUAGCUAGUCUUUAAACCAAUAGAUUGCAUCGGUUUAAAAGGCAAGACCGUCAAAUUGCGGGAAAGGGGUCAACAGCCGUUCAGUACCAAGUCUCAGGGGAAACUUUGAGAUGGCCUUGCAAAGGGUAUGGUAAUAAGCUGACGGACAUGGUCCUAACCACGCAGCCAAGUCCUAAGUCAACAGAUCUUCUGUUGAUAUGGAUGCAGUUCACAGACUAAAUGUCGGUCGGGGAAGAUGUAUUCUUCUCAUAAGAUAUAGUCGGACCUCUCCUUAAUGGGAGCUAGCGGAUGAAGUGAUGCAACACUGGAGCCGCUGGGAACUAAUUUGUAUGCGAAAGUAUAUUGAUUAGUUUUGGAGUACUCGUGGUCG
Method in brief: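 Colonies from six replicate transformations of E. coli BL21(DE3) were pooled and amplicon-sequenced on an Illumina HiSeq 2500. The library placed an intron with all eight P1ex-region nucleotides randomised inside the knt kanamycin-resistance gene on pET-22b(+), and cells grew overnight at 37°C or 30°C on LB agar with or without 25 μg/mL kanamycin (plus 100 μg/mL carbenicillin, 50 μM IPTG, 0.2% rhamnose). Fitness is the DiMSum error-weighted combination of wild-type-normalised replicate fold changes, kanamycin versus none.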

| Sequence | self-splicing fitness (ln) (30 °C) | self-splicing fitness (ln) (37 °C) |
| --- | --- | --- |
| GAUCAGCAAUAUUACGCGAU | -3.92 ± 0.21 | -2.6 ± 0.2 |
| GAUCAGCAAUAUUACGCGCA | 0.225 ± 0.092 | -0.0411 ± 0.1 |
| GAUCAGCAAUAUUACGCGGA | -1.45 ± 0.18 | -0.828 ± 0.14 |
| GAUCAGCAAUAUUACGCGGG | -2.31 ± 0.1 | -1.33 ± 0.11 |
| GAUCAGCAAUAUUACGCUAG | -1.15 ± 0.15 | -0.723 ± 0.18 |
| GAUCAGCAAUAUUACGGACC | -0.933 ± 0.32 | -1.08 ± 0.36 |
| GAUCAGCAAUAUUACGGCAA | -0.689 ± 0.084 | -1.24 ± 0.087 |
| GAUCAGCAAUAUUACGGCAC | -0.826 ± 0.099 | 0.413 ± 0.17 |
| GAUCAGCAAUAUUACGGCUC | 0.00813 ± 0.1 | 0.687 ± 0.12 |
| GAUCAGCAAUAUUACGUAUC | -3.17 ± 0.21 | -2.62 ± 0.21 |
| GAUCAGCAAUAUUACGUCCC | -2.07 ± 0.41 | -0.381 ± 0.22 |
| GAUCAGCAAUAUUACGUCCG | -3.26 ± 0.26 | -1.66 ± 0.22 |
| GAUCAGCAAUAUUACGUUGA | -2.24 ± 0.17 | -1.54 ± 0.15 |
| GAUGAGCAAUAUUACGAAGC | -1.4 ± 0.41 | 0.175 ± 0.21 |
| GAUGAGCAAUAUUACGACGU | -1.09 ± 0.094 | -0.283 ± 0.11 |
| GAUGAGCAAUAUUACGACUG | -3.11 ± 0.44 |  |
| GAUGAGCAAUAUUACGAGCC | -0.987 ± 0.31 | -1.53 ± 0.41 |
| GAUGAGCAAUAUUACGAUUC | -2.42 ± 0.46 |  |
| GAUGAGCAAUAUUACGAUUG | -4.96 ± 0.45 | -2.67 ± 0.22 |
| GAUGAGCAAUAUUACGCAUA | -2.68 ± 0.21 | -1.98 ± 0.21 |
| GAUGAGCAAUAUUACGCGGA | -2.72 ± 0.12 | -2.15 ± 0.11 |
| GAUGAGCAAUAUUACGCGGU | -3.33 ± 0.28 | -2.77 ± 0.34 |
| GAUGAGCAAUAUUACGCGUU | -4.44 ± 0.28 | -3.27 ± 0.21 |
| GAUGAGCAAUAUUACGGAAG | -2.31 ± 0.33 |  |
| GAUGAGCAAUAUUACGGAGU | -3.16 ± 0.26 | -2.71 ± 0.38 |

| Sequence | self-splicing fitness (ln) (30 °C) | self-splicing fitness (ln) (37 °C) |
| --- | --- | --- |
| GAUGAGCAAUAUUACGGCCG | 0.414 ± 0.41 |  |
| GAUGAGCAAUAUUACGGGGA |  | -2.04 ± 0.25 |
| GAUGAGCAAUAUUACGGGUA | -3.19 ± 0.27 | -1.02 ± 0.17 |
| GAUGAGCAAUAUUACGGUAU | -2.71 ± 0.18 | -1.28 ± 0.14 |
| GAUGAGCAAUAUUACGGUGA | -2.21 ± 0.28 | -1.76 ± 0.27 |
| GAUGAGCAAUAUUACGGUUA | -2.77 ± 0.28 | -2.47 ± 0.25 |
| GAUGAGCAAUAUUACGUAAU | -2.8 ± 0.23 | -1.55 ± 0.28 |
| GAUGAGCAAUAUUACGUAGC | -3.69 ± 0.34 | -1.74 ± 0.25 |
| GAUGAGCAAUAUUACGUAUC | -3.54 ± 0.37 | -2.64 ± 0.31 |
| GAUGAGCAAUAUUACGUAUG |  | -1.59 ± 0.14 |
| GAUGAGCAAUAUUACGUCCG | -3.75 ± 0.43 | -2.09 ± 0.32 |
| GAUGAGCAAUAUUACGUGUA | -2.77 ± 0.16 | -1.87 ± 0.16 |
| GAUGAGCAAUAUUACGUGUU | -3.72 ± 0.31 | -2.47 ± 0.27 |
| GAUGAGCAAUAUUACGUUAC | -2.14 ± 0.13 | -0.982 ± 0.23 |
| GAUGAGCAAUAUUACGUUCA | -1.15 ± 0.079 | -0.819 ± 0.094 |
| GAUGAGCAAUAUUACGUUCC | -3.45 ± 0.49 | -2.23 ± 0.42 |
| GAUGAGCAAUAUUACGUUGC | -4.01 ± 0.39 | -3 ± 0.35 |
| GAUUAGCAAUAUUACGAACG | -1.09 ± 0.12 | 0.232 ± 0.13 |
| GAUUAGCAAUAUUACGAAGC | -2.4 ± 0.21 | -2.28 ± 0.21 |
| GAUUAGCAAUAUUACGAAUG | -0.837 ± 0.14 | -0.649 ± 0.16 |
| GAUUAGCAAUAUUACGAAUU | -2.56 ± 0.3 | -2.95 ± 0.47 |
| GAUUAGCAAUAUUACGACCG | -1.44 ± 0.14 | 0.0909 ± 0.18 |
| GAUUAGCAAUAUUACGACUA | -0.765 ± 0.17 | 0.0117 ± 0.13 |
| GAUUAGCAAUAUUACGAUAU | -1.19 ± 0.11 | -0.869 ± 0.13 |
| GAUUAGCAAUAUUACGCCGU | -1.61 ± 0.15 | -0.986 ± 0.25 |

| Sequence | self-splicing fitness (ln) (30 °C) | self-splicing fitness (ln) (37 °C) |
| --- | --- | --- |
| GAUUAGCAAUAUUACGCCUG | -1.56 ± 0.2 | -0.102 ± 0.19 |
| GAUUAGCAAUAUUACGCGAG | -2.28 ± 0.17 | -0.865 ± 0.12 |
| GAUUAGCAAUAUUACGCGUC | -4.09 ± 0.47 | -2.01 ± 0.3 |
| GAUUAGCAAUAUUACGCUAC | -3.62 ± 0.42 | -1.48 ± 0.29 |
| GAUUAGCAAUAUUACGCUGU | -2.84 ± 0.28 | -1.74 ± 0.31 |
| GAUUAGCAAUAUUACGGAGC | -3.23 ± 0.17 | -1.23 ± 0.13 |
| GAUUAGCAAUAUUACGGGAG | -2.81 ± 0.24 | -2.8 ± 0.38 |
| GAUUAGCAAUAUUACGGUCA | -1.38 ± 0.15 | -1.2 ± 0.12 |
| GAUUAGCAAUAUUACGGUGU | -2.74 ± 0.09 | -0.798 ± 0.083 |
| GAUUAGCAAUAUUACGUACG | -1.1 ± 0.13 | 0.136 ± 0.15 |
| GAUUAGCAAUAUUACGUCCU | -1.08 ± 0.14 | -0.47 ± 0.18 |
| GAUUAGCAAUAUUACGUGUC | -2.86 ± 0.27 | -2.28 ± 0.26 |
| GAUUAGCAAUAUUACGUUAA | -1.94 ± 0.32 | -1.98 ± 0.3 |
| GAUUAGCAAUAUUACGUUCA | -0.941 ± 0.084 | -0.497 ± 0.088 |
| GAUUAGCAAUAUUACGUUCU | -2.91 ± 0.11 | -2.07 ± 0.1 |
| GAUUAGCAAUAUUACGUUGC |  | -1.94 ± 0.26 |
| GCAAAGCAAUAUUACGAAAA | -1.98 ± 0.2 | -1.84 ± 0.24 |
| GCAAAGCAAUAUUACGAACU | -0.569 ± 0.094 | -0.26 ± 0.13 |
| GCAAAGCAAUAUUACGAAUC | -1.68 ± 0.12 | -0.115 ± 0.13 |
| GCAAAGCAAUAUUACGAGGG | -3.02 ± 0.11 | -1.55 ± 0.1 |
| GCAAAGCAAUAUUACGAUAG | -2.23 ± 0.11 | -0.989 ± 0.12 |
| GCAAAGCAAUAUUACGAUGG | -1.02 ± 0.099 | -0.442 ± 0.13 |
| GCAAAGCAAUAUUACGCAUU | -2.78 ± 0.12 | -1.7 ± 0.14 |
| GCAAAGCAAUAUUACGCCAC | -3.15 ± 0.27 | -1.93 ± 0.19 |
| GCAAAGCAAUAUUACGCGAG | -2.18 ± 0.28 | -1.11 ± 0.18 |

| Sequence | self-splicing fitness (ln) (30 °C) | self-splicing fitness (ln) (37 °C) |
| --- | --- | --- |
| GCAAAGCAAUAUUACGCUCA | -0.972 ± 0.13 | -0.0384 ± 0.16 |
| GCAAAGCAAUAUUACGCUGC | -3.72 ± 0.42 |  |
| GCAAAGCAAUAUUACGCUGU | -3.42 ± 0.26 | -2.84 ± 0.31 |
| GCAAAGCAAUAUUACGGAAG | -1.96 ± 0.14 | -0.343 ± 0.16 |
| GCAAAGCAAUAUUACGGACA | -0.517 ± 0.18 | -0.839 ± 0.14 |
| GCAAAGCAAUAUUACGGACC | -0.898 ± 0.092 | 0.746 ± 0.13 |
| GCAAAGCAAUAUUACGGACU | -0.621 ± 0.047 | 0.0957 ± 0.075 |
| GCAAAGCAAUAUUACGGAGG | -1.9 ± 0.1 | -1.62 ± 0.14 |
| GCAAAGCAAUAUUACGGAUG | -2.52 ± 0.12 | -1.74 ± 0.13 |
| GCAAAGCAAUAUUACGGCGC | -2.1 ± 0.19 | -0.824 ± 0.2 |
| GCAAAGCAAUAUUACGGCGU | -1.78 ± 0.1 | -0.692 ± 0.12 |
| GCAAAGCAAUAUUACGGUCG | -1.62 ± 0.089 | -0.369 ± 0.11 |
| GCAAAGCAAUAUUACGUCGC | -1.48 ± 0.16 | -2.45 ± 0.27 |
| GCACAGCAAUAUUACGAAGA | -1.41 ± 0.14 | -1.4 ± 0.18 |
| GCACAGCAAUAUUACGACCG | -1.14 ± 0.098 | 0.0916 ± 0.15 |
| GCACAGCAAUAUUACGCACA | -1.09 ± 0.092 | -0.164 ± 0.1 |
| GCACAGCAAUAUUACGCACU | -0.263 ± 0.06 | 0.324 ± 0.077 |
| GCACAGCAAUAUUACGCCAG | -1.99 ± 0.25 | -2.06 ± 0.26 |
| GCACAGCAAUAUUACGCCCC | -0.949 ± 0.12 | -0.0642 ± 0.15 |
| GCACAGCAAUAUUACGCGCG | -1.05 ± 0.066 | -0.445 ± 0.075 |
| GCACAGCAAUAUUACGCUCU | -0.938 ± 0.091 | -0.131 ± 0.1 |
| GCACAGCAAUAUUACGCUGA | -2.36 ± 0.13 | -0.362 ± 0.088 |

Reference: the supplement of paper PMC7877785
